Residue numbers refer to the chain shown, from its start.
T1: SEZ6 N1 (amino acids 1-70) on yeast (human, UniProt Q53EL9 20-89)
T1 construct: yeast display
T1 sequence: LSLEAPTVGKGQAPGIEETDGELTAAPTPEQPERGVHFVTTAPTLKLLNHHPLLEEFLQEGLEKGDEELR

B1: SC17.121 (antibody, V domains shown)
VH: EVQLQQSGPELMKPGASVKMSCKASGYTFTDHNIHWVKQHQGKSLEWIGEINPNTGGTGYNQKFQGKATMTVDKSSSTAYMELRSLTSEDSAVYYCVRGLYFFDYWGQGTTLTVSS
VL: QIVLTQSPAIMSASPGEKVTMTCSASSSVSYMHWYQQKSGTSPKRWIYDTSKLASGVPARFSGSGSGTSYSLTISSMETEDAATYYCQQWSNTPPTFGSVTKLEIK
notes: murine mAb
B2: SC17.156 (antibody, V domains shown)
VH: QVTLKESGPGILQPSQTLSLTCSFSGFSLSTSGMGVSWIRKTSGKGLEWLAHIFWDDDKWYNPSLKSRLTISKATSSNQVFLILTSVDTADTATYYCATFYGLYFAYWGQGTTLTVSS
VL: DVVMTQSPLSLPVSLGDQASISCRSSQSIVHSNGNTYLEWYLQKPGQSPKLLIYKVSNRFSGVPDRFSGSGSGTDFTLKISRVEAEDLGVYYCFQGSHVPPTFGGGTKLEIK
notes: murine mAb
B3: SC17.151 (antibody, V domains shown)
VH: EVQLQQSGTVLARPGASVKMSCKASGYTFTSYWMHWVKQRPGQGLEWIGAIYPGKNDTTYNQKFKGKAKLTAVTSASTLYMELSSLTNEDSAVYYCTRSGKGYFAYWGQGTLVTVSA
VL: DIVLTQFPASLAVSLGQRATIPCRASESVDSYGNSFMHWFQQKPGQPPKLLIYRASNLESEIPARFSGSGSGTDFTLTINPVEADDVATYYCQQSHEDPYTFGGGTKMEIK
notes: murine mAb
B4: SC17.199 (antibody, V domains shown)
VH: EVQLQQSGTVLARPGASVRMSCKASGYTFTSYWMHWVKQRPGQGLEWIGAIYPGNSDTSYNHKFKGKAKLTAVTSASTAYMELSSLTNEDSAVYYCTRSGTGWFAYWGQGTLVTVS
VL: B3 VL with F7S, P22S, F40Y, L50P, E61G, G72R, H96N, M108L
notes: murine mAb
B5: SC17.9 (antibody, V domains shown)
VH: QVQLQQPGAEIVRPGASVKLSCKASGYTFTDYWMNWVKQRPGQGLEWIGAIDPSDSYTSYNPKFKGKATLTVDTSSSSAYMQLSSLTSEDSAVYFCARRGTPGKPLVYWGQGTLVTVSA
VL: DIVMSQSPSSLAVSVGEKVTMSCKSSQSLLYSSNQKNYLAWYQQKPGQSPKLLIYWASTRESGVPDRFTGSGSGTDFTLTISSVKAEDLAVYFCQQYYNYPYTFGGGTKLK
notes: murine mAb
B6: SC17.56 (antibody, V domains shown)
VL: DIVMSQSPSSLAVSVGEKVTMSCKSSQSLLYSSNQKNYLAWYQQKPGQSPKLLIYWASTRESGVPDRFTGSGSGTDFTLTISSVKAEDLAVYFCQQYYNYPYTFGGGTKLEIK
V domain: QIQLVQSGPELKKPGETVKISCKASGYTFTNYGMNWVKQAPGKGLKWMAWINTYTGEPTYADDFKGRFAFSLETSASTASLQIINLKNEDTATYFCARIGDSSPSDYWGQGTTLTV
notes: murine mAb
B7: SC17.81 (antibody, V domains shown)
VH: EVQLQQSGAELVKPGASVKLSCTASGFNINDTYYHWLKQRPEQGLEWIGRIDPANVNTKYDPKFQGKATLTADTSSNTAYLQLSSLTSEDTAVYYCGRGNAYWGQGTLVTVSA
VL: B6 VL with A12T, M21L, S33T, N37I, T80A, S83N, F93Y, N99S
notes: murine mAb
B8: SC17.114 (antibody, V domains shown)
VH: EVQLQQSGPEMVKPGASVKISCKASGYTFTDYYMHWVKQSHGKSLEWIGRVNTNNGGTSYDQKFEGKATLTVDKSSSTAYMELNSLTSEDSAVYYCVIPAWFAYWGQGTLVTVSA
VL: B2 VL with I29L, E39H, N58S, Y92F, F94S, G96S, S97T, P101F, G105S
notes: murine mAb
B9: SC17.120 (antibody, V domains shown)
VH: EVQLEQSGTVLARPGASVKMSCKASGYTFTSYWMHWVKQRPGQGLEWIGAFYPGNSGTYYNQKFKDKAKLTAVTSASTAYMELSSLTNEDSAVYYCSRSGSGRFAYWGQGTLVTVSA
VL: B3 VL with F7S, P22S, F40Y, L50V, E61G, G72R, A84D, D85E, H96N, M108L
notes: murine mAb

biological target: T2, SEZ6 Sushi Domain 4 (amino acids 750-813) on yeast (human, UniProt Q53EL9 769-832); assay: yeast display, flow cytometry;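 also: antibody binding to individual SEZ6 domains displayed on yeast, measured by flow cytometry, antibody at 50 nM purified or hybridoma supernatant diluted 1:2, 90 min on ice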
T2 construct: yeast display

Binding result, binds:
B1, B2

biological target: T1, SEZ6 N1 (amino acids 1-70) on yeast; assay: yeast display, flow cytometry;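 also: antibody binding to individual SEZ6 domains displayed on yeast, measured by flow cytometry, antibody at 50 nM purified or hybridoma supernatant diluted 1:2, 90 min on ice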

Binding result, binds:
B3, B4, B5, B6, B7, B8, B9
